Values quoted from earlier work, collected in paper PMC3889014.

Biological target: Cys145 (UniProt position 145, PILIPCHRVVC)

Question: For “O6-alkylguanine DNA-alkyltransferase (AGT; MGMT) (Homo sapiens (inferred; not stated in the sentence with the pKa))”, which pKa is on record?
Answer: 4–5
